Key:
endogenous p65 mRNA = test: Northern blot analysis of endogenous p65 mRNA in clonal cells expressing p65DN; format: cell-based, human; conditions: cell clones expressing p65DN
Description: (§1) Cell culture, Transfection and Clonal Selections: Human head and neck squamous carcinoma cells (SCC-35) were used for the experiments described. These cells have been previously characterized as resistant to ionizing radiation based on clinical and radiobiological parameters (30). Cells were cultured in 10 cm^2 dishes and maintained in Dulbeco modified Eagle's medium supplemented with 10% fetal bovine serum, 2 mML-amino acids. Cells were passaged routinely at 80-90% confluence and checked for mycoplasma contamination at three-month intervals. […] G418 resistant clonal cells were then subcloned and maintained in the complete medium containing G418 (400 μg/ml) as described above. Drug resistant colonies were pooled or subcloned for future studies.
RNA was electrophoresed on a 1% formaldehyde-agarose gel and then transferred to the nitrocellulose membrane, followed by UV cross-linking. The membrane was hybridized with γ-^32P-dATP labeled cDNA probes for 16 h, washed, and autoradiographed.
To investigate the effects of targeting p65 as a means of disrupting NF-κB activation, we transfected radioresistant human squamous carcinoma SCC-35 cells with an expression vector encoding amino acids 1 to 84 of human p65 (p65DN). The resulting G418-resistant colonies were isolated and analyzed for expression of p65DN and endogenous p65. […]

endogenous p65 protein = test: Immunoblot analysis of endogenous p65 protein in DN/CL6 cells; format: cell-based, human; conditions: DN/CL6 cells (SCC-35 clone expressing p65DN)
Description: as §1
Western blotting: Following exposure to γ-radiation (1-20 Gy) (a ^137Cs J. L. Shepherrd Mark 1 laboratory irradiator) or TNF-α (10 ng/ml) treatment, cell extracts were prepared by using lysis buffer (50 mM Tris-Cl, pH 7.5, 100 mM NaCl, 0.1% NP40, 1 mM PMSF, 10 mg/ml leupeptin, 1 mg/ml aprotinin, 1 mg/ml perpstatin), followed by centrifugation at 12,000×g for 20 minutes. Protein quantities were determined using the BCA protein assay kit (Pierce). Equal amounts of cell extracts were analyzed on 10% SDS-polyacrylamide gels. […]

IκB-α = test: Immunoblot analysis of IR-induced IκB-α Ser32 phosphorylation/degradation and nuclear p65; format: cell-based, human; conditions: DN/CL6 cells
Description: (§2) Western blotting: Following exposure to γ-radiation (1-20 Gy) (a ^137Cs J. L. Shepherrd Mark 1 laboratory irradiator) or TNF-α (10 ng/ml) treatment, cell extracts were prepared by using lysis buffer (50 mM Tris-Cl, pH 7.5, 100 mM NaCl, 0.1% NP40, 1 mM PMSF, 10 mg/ml leupeptin, 1 mg/ml aprotinin, 1 mg/ml perpstatin), followed by centrifugation at 12,000×g for 20 minutes. Protein quantities were determined using the BCA protein assay kit (Pierce). Equal amounts of cell extracts were analyzed on 10% SDS-polyacrylamide gels. The transblotted membranes were blocked in PBS containing 5% dry milk for 1 h and probed with specific antibodies, followed by washing with PBST. The membrane was then incubated with horse-radish peroxidase conjugated secondary antibodies for 30-60 minutes washed with PBST, and developed by using the ECL-chemiluminescence detection system (Amersham). Equal loading and transfer of proteins among lanes were confirmed by immunoblot analysis with antibodies to β-actin (Amersham) or by staining the membrane with Ponceau S. Other antibodies used in this study include anti-NF-κB(p65), IκB-α caspases-3, (Santa Cruz Biotechnology, Santa Cruz, Calif.) and PARP (Enzyme Synthesis, Dublin, Calif.).
IκB-α binds to both subunits of the p50-p65 heterodimer. We therefore next determined the effect of p65DN expression on IR-induced phosphorylation and subsequent degradation of IκB-αin the cytoplasm. […] This conclusion is consistent with the previous observation that amino acids 1 to 101 of p65 are required for its binding to IκB-α (36). We therefore propose that p65DN interferes with the inhibitory function of IκB-α by binding to this protein in both the cytoplasm and nucleus.

NF-κB = NF-κB luciferase reporter assay (pNF-κB-Luc); format: cell-based, human; conditions: DN/CL6 vs SCC-35 cells; IR 20 Gy or TNF-α 10 ng/ml, 6 h
Description: Luciferase Reporter Assay: Cells were transiently transfected for 16 h with 5 μg/ml of plasmid DNA by using Lipofectin (Gibco-BRL). Following treatment with ionizing radiation (20 Gy) or TNF-α (10 ng/ml), cells were lysed at 6 h in Reporter Lysis Buffer (Promega), and centrifuged for 2 min at 14,000×g.
To determine whether p65DN inhibits the activation of NF-κB, we transfected DN/CL6 cells with the NF-κB-specific luciferase reporter vector pNF-κB-Luc and then examined the effect of IR or TNF-α on luciferase activity. The stimulatory effects of these agents on NF-κB activity were reduced by a factor of 2 to 3 in DN/CL6 cells compared with those apparent in SCC-35 cells (FIG. 2B). Expression of p65DN thus inhibited NF-κB activation.

SCC-35 cells [1] = test: Radiation (clonogenic) survival assay; format: cell-based, human; conditions: DN/CL6 cells
Description: Radiation survival assay: Clonogenic dose response was determined as previously described (32). Briefly, exponentially growing cells were plated in T-25 flasks and exposed to graded doses of ionizing radiation in a ^137Cs J. L. Shepherrd Mark 1 laboratory irradiator with a dose accuracy of ±5%. Physics support for calibration and quality assurance was provided for all experimental protocols. Colony counts were fit to single hit multitarget (SHMT) and the linear quadratic (L-Q) models (33). Data points were obtained from two to three independent experiments in triplicates for each experiment.
Impaired regulation of NF-κB in certain cell types is associated with intrinsic cellular radiosensitivity (14-16). To examine the role of NF-κB in determining cell sensitivity to radiation, we performed clonogenic survival assays after exposure of SCC-35 and DN/CL6 cells to graded doses of γ-radiation (FIG. 3). The sensitivity of DN/CL6 cells to IR was greater than that of the parental SCC-35 cells. According to the single-hit multitarget model (33), D0 values were determined to be 1.9 Gy (with α=0.16 and β=0.02) for SCC-35 cells and 1.2 Gy (with α=0.11 and β=0.06) for DN/CL6 cells. Because of the potential pitfalls of clonal heterogeneity associated with determination of radiation sensitivity in a clonal cell population, we also performed survival experiments with pooled transfected clones.

SCC-35 cells [2] = test: Apoptotic index after γ-radiation; format: cell-based, human; conditions: DN/CL6 cells
Source text: Apoptotic Index: Adherent and floating cells were collected at various times after exposure to various doses (1-20 Gy) of gamma radiation (a ^137Cs J. L. Shepherd Mark 1laboratory irradiator) and stained with acridine-orange and ethidium bromide (14). About 600 cells (˜100 cells per field) were scored for the aberrant chromosome organizations under flourescence microscopy. The apoptotic cells=(total number of cells with apoptotic nuclei/total number of cells counted)×100. All values represent the mean±SE of the experiments. All experiments were performed more than three times.
Activation of NF-κB contributes to the protection of many cell types from apoptotic cell death induced by DNA-damaging agents. However, under certain conditions and in certain cell types, activation of NF-κB induces apoptosis (37). Given that clonogenic survival analysis provides a measure of all types of cell death, we next determined the effect of p65DN expression on IR-induced apoptosis. IR induced a dose-dependent increase in the percentage of both SCC-35 and DN/CL6 cells characterized as apoptotic 48 h after irradiation (FIG. 4A). However, whereas the maximum proportion of apoptotic cells was 8% (evident at 20 Gy) for SCC-35 cells, confirming that apoptosis is not a major pathway of cell death in these cells, the maximum apoptotic index was 14% for DN/CL6 cells. The baseline apoptotic index for both cell lines was <1%.

PARP = PARP cleavage by immunoblot after γ-radiation; format: cell-based, human; conditions: DN/CL6 cells
Description: as §2, with “Calif.). […]” for “Calif.).”

caspase-3 = target: T1, caspase-3 (Homo sapiens, UniProt P42574); test: Caspase-3 activity, fluorogenic substrate assay after IR; format: cell-based; conditions: DN/CL6 cells, IR 5 Gy
T1 construct: endogenous in cells; host or cells: lysates of SCC-35 and DN/CL6 cells after 5 Gy of IR
T1 sequence (P42574 29-175 limits assumed): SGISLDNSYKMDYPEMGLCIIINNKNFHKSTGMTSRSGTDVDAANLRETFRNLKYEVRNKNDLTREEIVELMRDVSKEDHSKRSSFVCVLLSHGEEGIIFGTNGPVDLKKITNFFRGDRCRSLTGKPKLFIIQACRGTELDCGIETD
Description: Measurement of caspase activities—The activity of caspases-3 was assayed fluorometrically with specific fluorogenic substrates: MOCAc-Asp-Glu-Val-Asp-Ala-Pro-Lys(DNP)-NH2 (Peptide Institute, Osaka, Japan) (34). Cell extracts (60 μg of protein) were incubated for 1 h at 37° C. with 600 nM substrate in a reaction mixture (500 μl) containing 10 mM Hepes-NaOH (pH 7.4), 40 mM P-glycerophosphate, 50 mM NaCl, 2 mM MgCl2, 5 mM EGTA, 1 mM DTT, 2 mM ATP, 10 mM creatine phosphate, and creatine kinase (50 μg/ml). The fluorescence of the cleaved substrates was measured with a Hitachi F-4500 spectrophotometer at excitation and emission wavelengths, respectively, of 328 and 393 nm for MOCAc-DEVDAPK(DNP)-NH2.
The nuclear enzyme poly(ADP-ribose) polymerase (PARP), which plays an important role in the repair of DNA damage and in maintenance of genomic integrity (38, 39), is specifically cleaved between its NH2-terminal DNA-binding domain and its multifunctional COOH-terminal domain by caspase-3 or a caspase-3—like protease early during the execution phase of apoptosis (40). We therefore examined the effects of p65DN on both the cleavage of PARP and caspase-3 activity. […] Exposure to 5 Gy of γ-radiation induced a substantial increase in PARP cleavage within 48 h in DN/CL6 cells, whereas cleavage of this enzyme remained barely detectable at 72 h in SCC-35 cells (FIG. 4C).

B1: p65DN: dominant negative fragment, amino acids 1 to 84 of human p65 (RelA), expressed from vector pCR3.1 in SCC-35 cells (clone DN/CL6) (protein)
chain: MDELFPLIFPAEPAQASGPYVEIIEQPKQRGMRFRYKCEGRSAGSIPGERSTDTTKTHPTIKINGYTGPGTVRISLVTKDPPHR
amount of endogenous p65 mRNA compared with parental SCC-35 cells (endogenous p65 mRNA): reduced | reduction of the amount of endogenous p65 protein compared with parental SCC-35 cells (endogenous p65 protein): 75% | amount of p65 in the nucleus after irradiation (IκB-α; IR): decrease | IR-induced phosphorylation of IκB-α on Ser32 (IκB-α; at 3 h after irradiation): remained markedly increased | time after irradiation without detectable degradation of IκB-α (IκB-α; parental cells degraded within 1 h): up to 3 h | factor of reduction of stimulatory effects of IR or TNF-α on NF-κB (luciferase) activity (NF-κB): 2 to 3 | α (SCC-35 cells [1]; clonogenic survival fit): 0.11 | β (SCC-35 cells [1]; clonogenic survival fit): 0.06 | D0 (SCC-35 cells [1]; single-hit multitarget model, graded γ-radiation doses): 1.2 Gy | time at which substantial increase in apoptotic index was apparent (SCC-35 cells [2]; 5 Gy γ-radiation): 24 h | maximum apoptotic index (SCC-35 cells [2]; 48 h after irradiation, 2-20 Gy): 14% | baseline apoptotic index (SCC-35 cells [2]; no irradiation): < 1% | time to substantial increase in PARP cleavage (PARP; 5 Gy γ-radiation): ≤ 48 h | γ-radiation dose resulting in PARP cleavage (PARP; data not shown): ≤ 2 Gy | IR-induced activation of caspase-3 compared with SCC-35 cells (caspase-3): earlier and more pronounced activation

From US20050287158A1, “The p65 subunit of nf-kb for the radiosensitization of cells” (Georgetown University, priority 2002, published 2005)
